Experimental data from US6903185.

B1: NZ site (dsDNA)
DNA 1: TCTGCAAGGGTTCAGCGTGGGCGGTAAG
DNA 2: CTTACCGCCCACGCTGAACCCTTGCAGA
B2: N/Z site (dsDNA)
DNA 1: TCTGCAAGGGTTCAGGCGTGGGCGGTAAG
DNA 2: CTTACCGCCCACGCCTGAACCCTTGCAGA
B3: Z site in luciferase reporter promoter (dsDNA)
DNA 1: GCGTGGGCG
DNA 2: CGCCCACGC
B4: N//Z site in luciferase reporter promoter (dsDNA)
DNA 1: AAGGGTTCAGTGCGTGGGCG
DNA 2: CGCCCACGCACTGAACCCTT
B5: N//Z site (dsDNA)
DNA 1: TCTGCAAGGGTTCAGTGCGTGGGCGGTAAG
DNA 2: CTTACCGCCCACGCACTGAACCCTTGCAGA
B6: N/Z site in luciferase reporter promoter (dsDNA)
DNA 1: AAGGGTTCAGGCGTGGGCG
DNA 2: CGCCCACGCCTGAACCCTT

How the values were obtained:
[1] = target: T1, Zif268 (three-finger peptide) (UniProt P08046 P08046:333-421); assay: EMSA; pH 7.0, 100 mM NaCl, 5 mM MgCl2, Zn, room temp
[2] = target: T1, Zif268 (three-finger peptide); assay: EMSA; room temp
[3] = target: T1, Zif268 (three-finger peptide); assay: cell_activity; 293 cells

Row | Binder | Kd [2] [nM] | activity [3] [fold repression] | other results
1 | B1 |  |  | Kd [1]: 0.012 nM
2 | B2 | 0.014 |  | 
3 | B3 |  | 13 | 
4 | B4 |  | 15 | 
5 | B5 | 0.014 |  | 
6 | B6 |  | 8.9 | 
